This note sets out measurements from article PMC10303918.

Bounds are passed on as bounds.

The experiment has as its target recombinant human CA125 (rhCA125) (human) (UniProt Q8WXI7).

For “recombinant human mesothelin Fc fusion (hrMSLN-Fc) (from UniProt Q13421 296-598)”, the adhesion of GFP-MSLN transfected HEK 293 T cells on an OVCAR-3 (MSLN+, MUC16+) monolayer in the presence of 1 uM Nb A1; percent of adhesion blocked is greater than 90%.
